Experimental findings from PMC7610489 are described below.

The assay concerns the target P4-FAM, N-terminally fluorescein-labelled P4 peptide (Streptococcus cristatus). The assay can be described thus: MST.

What is called Kd is the constant that tells how readily two partners part at equilibrium. High values mean lower affinity, low ones higher affinity. As to “RagAB from P. gingivalis ATCC 33277 (complex)”, the equilibrium dissociation constant (Kd) worked out at 200 nM.
The substance “RagAB complex purified from wild-type P. gingivalis W83, 8xHis-tag on the C terminus of RagB” registered a Kd of 2000 nM. This Kd lies about 10-fold higher than the previous one.
